Assay results as given in publication PMC11417369, “DNA sequence and chromatin differentiate sequence-specific transcription factor binding in the human malaria parasite Plasmodium falciparum”.

T1: SIP2 D1 (Plasmodium falciparum, UniProt C6KSN9 177-235)
T1 sequence: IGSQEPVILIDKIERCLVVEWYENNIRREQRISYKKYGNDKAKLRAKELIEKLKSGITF

B1: GTGCAC_negctrl_site363 (dsDNA)
DNA 1: ATTAGAGAATCGTAACCCAAATGAACATACTTAAAT
DNA 2: ATTTAAGTATGTTCATTTGGGTTACGATTCTCTAAT
B2: GTGCAC_negctrl_site419 (dsDNA)
DNA 1: GAAGGAAAAGATACGATAAAATAAGATATTAATTTA
DNA 2: TAAATTAATATCTTATTTTATCGTATCTTTTCCTTC
B3: GTGCAC_negctrl_site389 (dsDNA)
DNA 1: TATTATAAATTAATTTTAAACTTTATTATTATGATA
DNA 2: TATCATAATAATAAAGTTTAAAATTAATTTATAATA
B4: GTGCAC_site10256 (dsDNA)
DNA 1: AAGGAATGCATATAGGTGCTACACATAAAAATAAAA
DNA 2: TTTTATTTTTATGTGTAGCACCTATATGCATTCCTT
B5: GTGCAC_negctrl_site471 (dsDNA)
DNA 1: GATTATCTATCGCTTGAATGAAATGAAATCATGCAA
DNA 2: TTGCATGATTTCATTTCATTCAAGCGATAGATAATC
B6: GTGCAC_negctrl_site453 (dsDNA)
DNA 1: AATAGGAAGACTATTTTGTATTTGATTTTTTATTCC
DNA 2: GGAATAAAAAATCAAATACAAAATAGTCTTCCTATT
B7: GTGCAC_negctrl_site233 (dsDNA)
DNA 1: TAAACCTTAAAATATTTCTCATGTTTAACTTATATT
DNA 2: AATATAAGTTAAACATGAGAAATATTTTAAGGTTTA
B8: GTGCAC_negctrl_site383 (dsDNA)
DNA 1: TTTTGTTTTGTTTTGTTTTGTTTTGTTTTATTTTAT
DNA 2: ATAAAATAAAACAAAACAAAACAAAACAAAACAAAA
B9: GTGCAC_negctrl_site69 (dsDNA)
DNA 1: AACAGATAATATAAAAAAAAAAAAAAAAATAATTAA
DNA 2: TTAATTATTTTTTTTTTTTTTTTTATATTATCTGTT
B10: GTGCAC_negctrl_site515 (dsDNA)
DNA 1: GATATGATGAGATTGATATTCATAAGAGGATTAATG
DNA 2: CATTAATCCTCTTATGAATATCAATCTCATCATATC
B11: GTGCAC_site9588 (dsDNA)
DNA 1: AAAAAAAAAAATTCGGTGCAATGTAATTAATGTAAA
DNA 2: TTTACATTAATTACATTGCACCGAATTTTTTTTTTT
B12: GTGCAC_site9663 (dsDNA)
DNA 1: AAATAGTAAGAGATGGTGCGTTTCCTTTTTTTTTTT
DNA 2: AAAAAAAAAAAGGAAACGCACCATCTCTTACTATTT
B13: GTGCAC_negctrl_site386 (dsDNA)
DNA 1: AAGATAAACTTTTTTAATTAATTTAATTTTTTTTTT
DNA 2: AAAAAAAAAATTAAATTAATTAAAAAAGTTTATCTT
B14: GTGCAC_negctrl_site525 (dsDNA)
DNA 1: TTTCTAAGAAAAAAAAAAAAAAAAAAAAAGATACAA
DNA 2: TTGTATCTTTTTTTTTTTTTTTTTTTTTCTTAGAAA
B15: GTGCAC_site10192 (dsDNA)
DNA 1: ATATTATTATATATAGTGCATATTATTATTTTTATT
DNA 2: AATAAAAATAATAATATGCACTATATATAATAATAT
B16: GTGCAC_site9982 (dsDNA)
DNA 1: ATTGTTATTTATTGTGTGCGCATTAATACATACATA
DNA 2: TATGTATGTATTAATGCGCACACAATAAATAACAAT
B17: GTGCAC_site9453 (dsDNA)
DNA 1: TGTTTTATTTTATTAGTGCATTTTTATTTATAATAG
DNA 2: CTATTATAAATAAAAATGCACTAATAAAATAAAACA
B18: GTGCAC_negctrl_site504 (dsDNA)
DNA 1: TTTCAAGGATTTAATTTATGGAAACCTTCTTCATTT
DNA 2: AAATGAAGAAGGTTTCCATAAATTAAATCCTTGAAA
B19: GTGCAC_negctrl_site444 (dsDNA)
DNA 1: TTTTTCACATCTATAAATCATCTAATCAATATTTTT
DNA 2: AAAAATATTGATTAGATGATTTATAGATGTGAAAAA
B20: GTGCAC_negctrl_site410 (dsDNA)
DNA 1: TTATCTTAATTGTGATTATAAAGATATTCTTTCTAT
DNA 2: ATAGAAAGAATATCTTTATAATCACAATTAAGATAA
B21: GTGCAC_negctrl_site559 (dsDNA)
DNA 1: TTTTTTATTGTGAAACTGATATTATATTTTTTATAA
DNA 2: TTATAAAAAATATAATATCAGTTTCACAATAAAAAA
B22: GTGCAC_negctrl_site373 (dsDNA)
DNA 1: AATAAATTAAATAAAAATGTTTAACATAAAATATGA
DNA 2: TCATATTTTATGTTAAACATTTTTATTTAATTTATT
B23: GTGCAC_negctrl_site686 (dsDNA)
DNA 1: TCTTATATGATATTTATTTATTTATTTATTTATTCA
DNA 2: TGAATAAATAAATAAATAAATAAATATCATATAAGA
B24: GTGCAC_negctrl_site536 (dsDNA)
DNA 1: TGAAAAAATATAAAATATAAAATAAAAAATATAAAA
DNA 2: TTTTATATTTTTTATTTTATATTTTATATTTTTTCA
B25: GTGCAC_negctrl_site149 (dsDNA)
DNA 1: GCAAAATATTTAAAATAATATATGTGTATATTTTTA
DNA 2: TAAAAATATACACATATATTATTTTAAATATTTTGC
B26: GTGCAC_negctrl_site60 (dsDNA)
DNA 1: AACACAATAAAAATTAAAAATGTTAAGTAAATATAA
DNA 2: TTATATTTACTTAACATTTTTAATTTTTATTGTGTT
B27: GTGCAC_site9975 (dsDNA)
DNA 1: TGATTCACTATAGTAGTGCATATTATATATATATAT
DNA 2: ATATATATATATAATATGCACTACTATAGTGAATCA
B28: GTGCAC_negctrl_site477 (dsDNA)
DNA 1: AAAAAAAATTTTCTTCTGTTGTATTTTTTATACGTT
DNA 2: AACGTATAAAAAATACAACAGAAGAAAATTTTTTTT
B29: GTGCAC_site10335 (dsDNA)
DNA 1: ATCAAGCGCAATGTGGTGCGTAAATTTTGTATTATA
DNA 2: TATAATACAAAATTTACGCACCACATTGCGCTTGAT
B30: GTGCAC_site9653 (dsDNA)
DNA 1: GTGTACTTTTAAATAGTGCATTTTACAATAATAAAA
DNA 2: TTTTATTATTGTAAAATGCACTATTTAAAAGTACAC
B31: GTGCAC_negctrl_site79 (dsDNA)
DNA 1: TTTTAAAAAAGAAAAAAAAAGGATCAGAGAAATATT
DNA 2: AATATTTCTCTGATCCTTTTTTTTTCTTTTTTAAAA
B32: GTGCAC_site9718 (dsDNA)
DNA 1: TCTTTTTGCATGTGTGTGCGCACAAAATACACAAAA
DNA 2: TTTTGTGTATTTTGTGCGCACACACATGCAAAAAGA
B33: GTGCAC_negctrl_site629 (dsDNA)
DNA 1: TTGTTTTCTTTTTCTTTTCTTTTTCTTTTTTCTTTT
DNA 2: AAAAGAAAAAAGAAAAAGAAAAGAAAAAGAAAACAA
B34: GTGCAC_site10234 (dsDNA)
DNA 1: TAAAACAAAAAAAAGATGCACTATTTATTTTATTAT
DNA 2: ATAATAAAATAAATAGTGCATCTTTTTTTTGTTTTA
B35: GTGCAC_negctrl_site401 (dsDNA)
DNA 1: AAAAAAATTAAAAATAAAGAAAAAAAAAAAAAAAAA
DNA 2: TTTTTTTTTTTTTTTTTCTTTATTTTTAATTTTTTT
B36: GTGCAC_negctrl_site205 (dsDNA)
DNA 1: TATAATTATTTTTTTCTAAATATTATAAGGTATTCA
DNA 2: TGAATACCTTATAATATTTAGAAAAAAATAATTATA
B37: GTGCAC_negctrl_site169 (dsDNA)
DNA 1: ATAAGAAGGAACATAAATATATCATAAAAAAAAAAA
DNA 2: TTTTTTTTTTTATGATATATTTATGTTCCTTCTTAT
B38: GTGCAC_site10455 (dsDNA)
DNA 1: AATATTCAATATAAAGTGCATTATTGTGGACCTAAT
DNA 2: ATTAGGTCCACAATAATGCACTTTATATTGAATATT
B39: GTGCAC_negctrl_site53 (dsDNA)
DNA 1: TGAAAAATTACAAAAATAATAAAATGAAATAATAAA
DNA 2: TTTATTATTTCATTTTATTATTTTTGTAATTTTTCA
B40: GTGCAC_negctrl_site176 (dsDNA)
DNA 1: TTTAATTAATAATAATATAAATTGTTCTTTTTTTTT
DNA 2: AAAAAAAAAGAACAATTTATATTATTATTAATTAAA
B41: GTGCAC_negctrl_site187 (dsDNA)
DNA 1: AGGAAACAAGAAATGAAGAATCATGTAGAAGGCCCA
DNA 2: TGGGCCTTCTACATGATTCTTCATTTCTTGTTTCCT
B42: GTGCAC_negctrl_site12 (dsDNA)
DNA 1: AATAAAAAAATAAAAAAAAAAAAAAATAAAAAAAAA
DNA 2: TTTTTTTTTATTTTTTTTTTTTTTTATTTTTTTATT
B43: GTGCAC_negctrl_site547 (dsDNA)
DNA 1: TTTTACAATAATAAGTAGATCTAAATAAAGATTTAA
DNA 2: TTAAATCTTTATTTAGATCTACTTATTATTGTAAAA
B44: GTGCAC_negctrl_site530 (dsDNA)
DNA 1: AATATATCAAAAATGATGACATAAATATATTAATTT
DNA 2: AAATTAATATATTTATGTCATCATTTTTGATATATT

target: T1, SIP2 D1; assay: gcPBM; about 25 ug protein; PBS, 1% milk, 0.2 mg/ml BSA, salmon testes DNA, 0.03% Triton X-100; conditions: tags: N-terminal GST (pGEX-4T-1), kept; label: surface-attached array probe

| Binder | binding signal |
| --- | --- |
| B1 | 6.72 ln median PBM intensity, better of two orientations |
| B2 | 6.61 ln median PBM intensity, better of two orientations |
| B3 | 6.7 ln median PBM intensity, better of two orientations |
| B4 | 9.67 ln median PBM intensity, better of two orientations |
| B5 | 6.65 ln median PBM intensity, better of two orientations |
| B6 | 6.62 ln median PBM intensity, better of two orientations |
| B7 | 6.73 ln median PBM intensity, better of two orientations |
| B8 | 6.74 ln median PBM intensity, better of two orientations |
| B9 | 6.71 ln median PBM intensity, better of two orientations |
| B10 | 6.75 ln median PBM intensity, better of two orientations |
| B11 | 9.5 ln median PBM intensity, better of two orientations |
| B12 | 9.3 ln median PBM intensity, better of two orientations |
| B13 | 6.66 ln median PBM intensity, better of two orientations |
| B14 | 6.64 ln median PBM intensity, better of two orientations |
| B15 | 9.16 ln median PBM intensity, better of two orientations |
| B16 | 9.22 ln median PBM intensity, better of two orientations |
| B17 | 9.34 ln median PBM intensity, better of two orientations |
| B18 | 6.53 ln median PBM intensity, better of two orientations |
| B19 | 6.76 ln median PBM intensity, better of two orientations |
| B20 | 6.56 ln median PBM intensity, better of two orientations |
| B21 | 6.71 ln median PBM intensity, better of two orientations |
| B22 | 6.67 ln median PBM intensity, better of two orientations |

| Binder | binding signal |
| --- | --- |
| B23 | 6.77 ln median PBM intensity, better of two orientations |
| B24 | 6.67 ln median PBM intensity, better of two orientations |
| B25 | 6.73 ln median PBM intensity, better of two orientations |
| B26 | 6.71 ln median PBM intensity, better of two orientations |
| B27 | 9.26 ln median PBM intensity, better of two orientations |
| B28 | 6.77 ln median PBM intensity, better of two orientations |
| B29 | 9.46 ln median PBM intensity, better of two orientations |
| B30 | 9.56 ln median PBM intensity, better of two orientations |
| B31 | 6.69 ln median PBM intensity, better of two orientations |
| B32 | 9.06 ln median PBM intensity, better of two orientations |
| B33 | 6.64 ln median PBM intensity, better of two orientations |
| B34 | 9.6 ln median PBM intensity, better of two orientations |
| B35 | 6.66 ln median PBM intensity, better of two orientations |
| B36 | 6.55 ln median PBM intensity, better of two orientations |
| B37 | 6.73 ln median PBM intensity, better of two orientations |
| B38 | 9.41 ln median PBM intensity, better of two orientations |
| B39 | 6.68 ln median PBM intensity, better of two orientations |
| B40 | 6.5 ln median PBM intensity, better of two orientations |
| B41 | 6.71 ln median PBM intensity, better of two orientations |
| B42 | 6.76 ln median PBM intensity, better of two orientations |
| B43 | 6.73 ln median PBM intensity, better of two orientations |
| B44 | 6.58 ln median PBM intensity, better of two orientations |
